Among the data in patent US20150104459A1 are Trimeric HA Binding RLU and Trimeric HA Binding: RLU values, retold here.

Details in all cases: remark: other sources report otherwise
Assay [1] deals with recombinant soluble homotrimeric HA of A/Wisconsin/67/05 (H3N2) (Influenza A virus A/Wisconsin/67/2005 (H3N2)). Description: HA microarray, BCC supernatant.
Assay [2] deals with recombinant soluble homotrimeric HA of A/chicken/Vietnam/NCVD-016/08 (H5N1) (Influenza A virus A/chicken/Vietnam/NCVD-016/2008 (H5N1)). Description: HA microarray, BCC supernatant.
Assay [3] addresses recombinant soluble homotrimeric HA of A/Japan/305/57 (H2N2) (Influenza A virus A/Japan/305/1957 (H2N2)). Kind of assay: HA microarray, BCC supernatant.
The target of assay [4] is recombinant soluble homotrimeric HA of A/Solomon Islands/3/06 (H1N1) (Influenza A virus A/Solomon Islands/3/2006 (H1N1)). Kind of assay: HA microarray, BCC supernatant.
Assay [5] concerns the target T1, recombinant homotrimeric HA, A/Solomon Islands/3/06 H1N1 (Influenza A virus A/Solomon Islands/3/06 (H1N1)). Kind of assay: trimeric HA microarray; transfection supernatant set 2.
The target in assay [6] is recombinant soluble homotrimeric HA of A/Netherlands/219/03 (H7N7) (Influenza A virus A/Netherlands/219/03 (H7N7)). Description: HA microarray, BCC supernatant.
Assay [7] concerns the target recombinant soluble homotrimeric HA of A/swine/Ontario/01911-2/99 (H4N6) (Influenza A virus A/Swine/Ontario/01911-2/99 (H4N6)). Description: HA microarray, BCC supernatant.
Assay [8] has as its target recombinant soluble homotrimeric HA, A/Netherlands/219/03 (H7N7) (influenza A virus A/Netherlands/219/03 (H7N7)). Description: microarray, trimeric HA, transfection supernatant.
Assay [9] deals with recombinant soluble homotrimeric HA, A/duck/Yangzhou/02/2005 (H8N4) (influenza A virus A/duck/Yangzhou/02/2005 (H8N4)). Kind of assay: microarray, trimeric HA, transfection supernatant.
The target in assay [10] is recombinant soluble homotrimeric HA, A/chicken/Vietnam/NCVD-016/08 (H5N1) (influenza A virus A/chicken/Vietnam/NCVD-016/2008 (H5N1)). Kind of assay: microarray, trimeric HA, transfection supernatant.
The target of assay [11] is T1, recombinant homotrimeric HA, A/Solomon …. Kind of assay: trimeric HA microarray; transfection supernatant set 5.
The target of assay [12] is recombinant homotrimeric HA, A/swine/Ontario/01911-2/99 H4N6 (Influenza A virus A/swine/Ontario/01911-2/99 (H4N6)). Described as above.
Assay [13] concerns the target recombinant soluble homotrimeric HA of A/Vietnam/1203/04 (H5N1) (Influenza A virus A/Vietnam/1203/2004 (H5N1)). Description: HA microarray, BCC supernatant.
In assay [14] the target is recombinant soluble homotrimeric HA of A/Anhui/1/05 (H5N1) (Influenza A virus A/Anhui/1/2005 (H5N1)). Description: HA microarray, BCC supernatant.
Assay [15] concerns the target recombinant soluble homotrimeric HA of A/duck/Yangzhou/02/2005 (H8N4) (Influenza A virus A/duck/Yangzhou/02/2005 (H8N4)). Kind of assay: HA microarray, BCC supernatant.
Assay [16] concerns the target recombinant soluble homotrimeric HA of A/Egypt/3300-NAMRU3/08 (H5N1) (Influenza A virus A/Egypt/3300-NAMRU3/2008 (H5N1)). Description: HA microarray, BCC supernatant.
For assay [17], the target named is recombinant soluble homotrimeric HA of A/California/4/09 (H1N1) (Influenza A virus A/California/04/2009 (H1N1)). Kind of assay: HA microarray, BCC supernatant.
The target in assay [18] is recombinant soluble homotrimeric HA of A/Indonesia/5/05 (H5N1) (Influenza A virus A/Indonesia/5/2005 (H5N1)). Description: HA microarray, BCC supernatant.
For assay [19], the target named is recombinant soluble homotrimeric HA of A/northern shoveler/California/HKWF115/2007 (H6N1) (Influenza A virus A/northern shoveler/California/HKWF115/2007 (H6N1)). Description: HA microarray, BCC supernatant.
The target of assay [20] is recombinant homotrimeric HA, A/northern shoveler/California/HKWF115/07 (Influenza A virus A/northern shoveler/California/HKWF115/2007 (H6N1; Table 16 prints H6N4)). Kind of assay: trimeric HA microarray; transfection supernatant set 3.
Assay [21] concerns the target recombinant homotrimeric HA, A/Wisconsin/67/05 H3N2 (Influenza A virus A/Wisconsin/67/05 (H3N2)). Described as above.
Assay [22] has as its target T1, recombinant homotrimeric HA, A/Solomon …. Described as above.
Assay [23] concerns the target recombinant homotrimeric HA, A/Egypt/3300-NAMRU3/08 H5N1 (Influenza A virus A/Egypt/3300-NAMRU3/08 (H5N1)). The description is as above.
The target of assay [24] is T2, recombinant homotrimeric HA, A/Japan/305/57 H2N2 (Influenza A virus A/Japan/305/57 (H2N2)). The description is as above.
Assay [25] concerns the target recombinant homotrimeric HA, A/Anhui/1/05 H5N1 (Influenza A virus A/Anhui/1/05 (H5N1)). The description is as above.
Assay [26] addresses recombinant homotrimeric HA, A/Hong Kong/1073/99 H9N2 (Influenza A virus A/Hong Kong/1073/99 (H9N2)). Described as above.
Assay [27] concerns the target recombinant homotrimeric HA, A/Indonesia/5/05 H5N1 (Influenza A virus A/Indonesia/5/05 (H5N1)). Described as above.
Assay [28] deals with recombinant homotrimeric HA, A/California/4/09 H1N1 (Influenza A virus A/California/4/09 (H1N1)). The description is as above.
For assay [29], the target named is recombinant homotrimeric HA, A/Vietnam/1203/04 H5N1 (Influenza A virus A/Vietnam/1203/04 (H5N1)). The assay is described as above.
In assay [30] the target is recombinant homotrimeric HA, A/chicken/Vietnam/NCVD-016/08 H5N1 (Influenza A virus A/chicken/Vietnam/NCVD-016/08 (H5N1)). The description is as above.
In assay [31] the target is recombinant homotrimeric HA, A/South Carolina/1/18 H1N1 (Influenza A virus A/South Carolina/1/18 (H1N1)). The description is as above.
In assay [32] the target is recombinant homotrimeric HA, A/common magpie/Hong Kong/5052/07 H5N1 (Influenza A virus A/common magpie/Hong Kong/5052/07 (H5N1)). The description is as above.
The target of assay [33] is recombinant soluble homotrimeric HA, A/northern shoveler/California/HKWF115/2007 (H6N1) (influenza A virus A/northern shoveler/California/HKWF115/2007 (H6N1)). Kind of assay: microarray, trimeric HA, transfection supernatant.
Assay [34] concerns the target recombinant soluble homotrimeric HA, A/Hong Kong/156/97 (H5N1) (influenza A virus A/Hong Kong/156/97 (H5N1)). Kind of assay: microarray, trimeric HA, transfection supernatant.
The target in assay [35] is recombinant soluble homotrimeric HA, A/Anhui/1/05 (H5N1) (influenza A virus A/Anhui/1/2005 (H5N1)). Description: microarray, trimeric HA, transfection supernatant.
Assay [36] deals with T2, recombinant homotrimeric HA, …. Description: trimeric HA microarray; transfection supernatant set 5.

B1: TCN-526 (5084_C17) (antibody, V domains shown)
VH: EVLMVESGGGLVQPGGSVRLSCVASGFSFSSHWMTWVRQAPGKGLEWVANIEDDGGDKYYVDSVKGRFIISRDNAKNSVYLQMNSLRAEDTAVYFCARGSGSSDRSDYDPHYYYYLDVWGKGATVTVSS
VL: DIQLTQSPSSLSASVGDRVTITCRASQSISRYLNWYQQKPGKAPKLLLFAASTLLDGVPSRFSGSGSGTDFTLTISSLQPEDFATYYCQRNHSPSWTFGQGTRVEIK
In the case of B1, the Trimeric HA Binding RLU in [1] was determined as 49300 RLU; in assay [2], 179 RLU; in assay [3] it was 246 RLU; in assay [4], 341 RLU. Moreover, the Trimeric HA Binding: RLU in assay [5] was 1470 RLU.

B2: TCN-554 (5277_M05) (antibody, V domains shown)
VH: QVQLVQSGADLKKPGASVKVSCKASGYTFTDYYIHWVRQAPGQGLEWMGWINPESGDTKYAQKFQGRVTMTRDTSITTAYMELGRLRSDDTAVYYCARDVSTTWSWFAPWGQGTLVTVSS
VL: DIVMTQSPDSLAVSLGERATINCRSSQSIFHNSNNENYLAWYQQKPGQPPKLLIYWASTRESGVPDRFSGSGSGTDFTLTISSLQAEDVAVYFCQQYYNAPLTFGGGTKVEIK
In the case of B2, the Trimeric HA Binding RLU came to 610 RLU in [6]; 78 RLU in assay [7]; 46500 RLU in [1]; 250 RLU in [2]; 328 RLU in [3]; 4520 RLU in [8]. The results for the Trimeric HA Binding RLU in assay [9] and in assay [10] were 5810 RLU and 2710 RLU, respectively. Also, the Trimeric HA Binding: RLU in assay [11] turned out to be 992 RLU; in [12], 5400 RLU.

B3: TCN-533 (5256_A17) (antibody, V domains shown)
VH: QVQLVQSGADVKKPGSSVTVSCKASGGSFSNYGINWVRQAPGQGLEWMGGIIPLINAPNYAPKFQGRVTITADMFSNIVSLQLTSLRTDDTAVYYCARRKMTTAIDYWGQGTLVTVSS
VL: QPVLSQPPSASASLGASVTLTCTLSSGFDNYQVAWYQQRPGKGPRFVMRVGNGGNVASKGDGIPDRFSVSGSGLNRYLTIKNIQEDDESDYYCGADHGSGNNFVSPYVFGGGTKLTVL
Consider B3, for which the Trimeric HA Binding RLU in assay [13] amounted to 5680 RLU; in [14], 8060 RLU; in [1] it was 13800 RLU; in assay [2], 47700 RLU; in assay [3], 10800 RLU; in assay [15] it was 24700 RLU. For the same molecule, the Trimeric HA Binding RLU in assay [16] worked out at 34300 RLU; in [4], 39200 RLU; in [17] it was 29300 RLU; in assay [18], 44100 RLU; in assay [19], 41400 RLU. Further, the Trimeric HA Binding: RLU in [20] is 7810 RLU; in [21] it was 16100 RLU; in [22], 15500 RLU; in [23], 18600 RLU; in assay [24], 18600 RLU; in assay [25] it was 301 RLU. Moreover, the Trimeric HA Binding: RLU came to 23800 RLU in [26]; 28300 RLU in [27]; 6880 RLU in assay [28]; 11700 RLU in assay [29]; 24600 RLU in assay [30]; 16400 RLU in assay [31]. In addition, the Trimeric HA Binding: RLU in assay [32] amounted to 25200 RLU.

B4: TCN-542 (5079_A16) (antibody, V domains shown)
VH: QVQLQESGPGLVKPSQTLSLTCTVSGGSISSGNYYWNWVRQHPGKGLEWIGYIYYRGSTFYNPSLKSRVTISIDTSKNQFSLRLSSVTAADTAVYYCAKDTRSSLDNYQYGMDVWGQGTTVTVSS
VL: QTVVTQEPSLTVSPGGTVTLTCASSTGAVTSSYFPNWFQQKPGQAPRPLIYSTTIRHSWTPARFSGSLLGGKAALTLSGVQPEDEADYYCLLYSGGDPVAFGGGTKLTVL
Consider B4, for which the Trimeric HA Binding RLU stood at 142 RLU in [3]; 332 RLU in [15]; 2370 RLU in assay [33]; 786 RLU in assay [34]; 11600 RLU in [9]; 7410 RLU in assay [35]. Further, the Trimeric HA Binding RLU in assay [10] was 5460 RLU. Also, the Trimeric HA Binding: RLU in assay [36] amounted to 5180 RLU.
